# Results taken from the supplement of paper PMC11865577.
# Test system: G-clamp-N3 (biotin conjugate)
# Experiment: pull-down binding Z-score (relative to library population); higher = stronger binding
# Conditions: RNA library: Library-1 (pre-miRNA loops + repeats)
# Procedure, shortened: (§1)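 Heat-folded RNA library (1 μg, Cy5 or Cy3 end label, phosphate/NaCl/KCl buffer) was captured for 60 min at 25 °C on streptavidin beads displaying 100 pmol of biotin-conjugated small molecule, then washed three times. The bound fraction, eluted in hot SDS, was hybridised to a DNA barcode microarray at 55.5 °C for 20 h. Z-scores for binding were taken against the library mean and standard deviation after beads-only subtraction and trimmed averaging of replicate barcoded probes.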
row,Sequence,pull-down binding Z-score
1,UUUGUGGGGCGAGGAGGGACCUGUACUAGCCAUGGUUCUGAUCACAUAUG [hsa-mir-6834],0.432
2,UUUGUGUAAGGAAUUUUGUGGUCACAAA [hsa-mir-10a],1.29
3,UUUGUUGAAAGAAUAAAUAAACCAACAAG [hsa-mir-1264],-0.724
4,UUUUAAUUUUUUUAAAA [hsa-mir-3606],-1.03
5,UUUUAGAA [hsa-mir-4443],-1.3
6,UUUUAUCAUUACUUUUAAUGGCAAAA [hsa-mir-548f-2],0.854
7,UUUUCAGUUCCUGAGAUC [hsa-mir-4287],-1.15
8,UUUUCAUGACAACCCUAUAUGGGAAAAUGUUGUGAAAA [hsa-mir-3646],-0.346
9,UUUUCCCUUUCUCUUGCCCUGAAA [hsa-mir-4509-1_4509-3_4509-2],-1
10,UUUUCCUGAGAAUAAGAGAAGGAAGG [hsa-mir-4455],-0.563
11,UUUUCGCUUUAUAUGUGACGAAAC [hsa-mir-495],0.0902
12,UUUUCUGGGA [hsa-mir-4456],-0.606
13,UUUUCUGUCCUGUCCACACAGAAAA [hsa-mir-1537],-1
14,UUUUCUUAAAUUGUAUAAAGAGAAAU [hsa-mir-944],-0.343
15,UUUUGAAAGUAACUUGGCGAAA [hsa-mir-548ad],1.69
16,UUUUGACAUUACUUUCAAAGACAAAA [hsa-mir-548f-1],-1.58
17,UUUUGCAAUUUUUUAAUGACAAAA [hsa-mir-548t],-0.195

row,Sequence,pull-down binding Z-score
1,UUUUGCAGUUGAAAGUAAUGGCAAAG [hsa-mir-548ao],2.64
2,UUUUGCAGUUUUUUUAAGUAAUUGCAAAA [hsa-mir-548f-3],0.0351
3,UUUUGCAUUUAAAGUAAUGGCCAAA [hsa-mir-548ay],2.31
4,UUUUGCCAUUAAAAGUAAUGACAAAA [hsa-mir-548f-4],-0.841
5,UUUUGCCAUUACUUUCAAUGGCAAAA [hsa-mir-548aa-2],-0.284
6,UUUUGCCAUUACUUUUACAGGCAAAA [hsa-mir-548aa-1],-0.445
7,UUUUGCUAUUACUUUUAAAGGCAAAA [hsa-mir-548e],-0.666
8,UUUUGCUGUUACUUUUAAUGGCAAAA [hsa-mir-548az],-0.982
9,UUUUGCUUGUGUCUCUCCGCUCUGAGCAAUC [hsa-mir-96],-0.253
10,UUUUGUCUGA [hsa-mir-553],-1.4
11,UUUUUCCAUUGUAAGUAAUGGGAAAA [hsa-mir-548f-5],0.457
12,UUUUUCUUUACUUUUAAUGGCAAA [hsa-mir-548u],0.72
13,UUUUUGCAUUACGUUCUAUGGCAAAA [hsa-mir-548g],1.18
14,UUUUUGUUUUUGAGACAGAGU [hsa-mir-4472-2],-0.943
15,UUUUUUUCCAAUGAAAAUAACGAAACCUGUUAUUUCCCAUUGAGGGGGAAAAA [hsa-mir-4484],0.398
16,UUUUUUUCGCUUUAUUUGUGACGAAAC [hsa-mir-543],-0.305

# Test system: TO-3-N3-2 (biotin conjugate)
# Experiment: as above
# Conditions: RNA library: Library-2
# Procedure, shortened: as §1
row,Sequence,pull-down binding Z-score
1,UUUCUGUUGUCUGAAAGAAGAGAAA [hsa-mir-526b_518a-1],-0.214
2,UUUCUGUUGUCUGAAAGCAGA [hsa-mir-515-1_515-2],0.223
3,UUUCUUAAAUUUUAUAUAUUGGAA [hsa-mir-1284],-0.0723
4,UUUGCAUCUGGACGACGAAU [hsa-mir-409],-0.0371
5,UUUGCCAAUAAAAGUAAUGACAAA [hsa-mir-548ah],0.181
6,UUUGCCAGAGCUACAAAGGCAAA [hsa-mir-561],-0.521
7,UUUGCCAUUAAAAGUAACGACAAA [hsa-mir-548a-1],-0.389
8,UUUGCCAUUAAAAGUAAUGCGGCCAA [hsa-mir-548o-2],0.0369
9,UUUGCCAUUAAAAGUAAUGGUAAA [hsa-mir-548x-2],-0.616
10,UUUGCCAUUACUUUCAGUAGCAAA [hsa-mir-548c],-0.441
11,UUUGCCAUUACUUUCAGUGGCAAA [hsa-mir-548aq],-0.894
12,UUUGCCAUUAUAAUGGCAAA [hsa-mir-548ae-1],-0.855
13,UUUGCCAUUGAAAGUAAUGGCAAA [hsa-mir-548d-2],-0.422
14,UUUGCCGUCGAAAAUAAUGGCAAA [hsa-mir-548am],-0.146
15,UUUGCCGUUAAAAGUAAUGGCA [hsa-mir-548a-2],-0.17
16,UUUGCCGUUGCUUUUAAUGGUAAA [hsa-mir-548as],-0.381
17,UUUGCCUAUAAAAGUAAUGGCAAA [hsa-mir-548an],-0.19
18,UUUGCCUCUCUCAGAAAAUAGAGUCAAA [hsa-mir-4694],-0.0805
19,UUUGCCUGUAAAAGUAAUGGCAAA [hsa-mir-548d-1],-0.105
20,UUUGCGUUACUUUCAAUCGUAAA [hsa-mir-548x],-0.253
21,UUUGCUACUGAAAGUAAUGGCAAA [hsa-mir-548z],-0.468
22,UUUGCUAUUACUUUUAAUGGUAAA [hsa-mir-548aj-2],-0.502
23,UUUGCUAUUUUUUUUUAAUGGCAAA [hsa-mir-548ac],-0.0611
24,UUUGCUGUUGAACGUAGUGGUAA [hsa-mir-548ar],0.0962

row,Sequence,pull-down binding Z-score
1,UUUGGCUGCCAAAAGAAAUGGCCAAA [hsa-mir-548at],-0.331
2,UUUGGUAUUACUUUCAGUGGCAAA [hsa-mir-548j],0.0283
3,UUUGUACGGCACUGUGGCCACGUCCAAA [hsa-mir-497],-0.306
4,UUUGUAUUGUGGUUCAGUACCAUGCAAA [hsa-mir-6507],-0.36
5,UUUGUCAUUAAAGUAAUGCAAA [hsa-mir-548m],-0.211
6,UUUGUCAUUACUUUAAUUACUUUACGUUUCAUUAAUGACAAA [hsa-mir-548h-4],-0.563
7,UUUGUCAUUUAAAAGUAAUGGCAAA [hsa-mir-548ae-2],0.00258
8,UUUGUGGAUUUUGAAAAGGUGCAGG [hsa-mir-15a],0.66
9,UUUGUGGGGCGAGGAGGGACCUGUACUAGCCAUGGUUCUGAUCACAUAUG [hsa-mir-6834],2.72
10,UUUGUGUAAGGAAUUUUGUGGUCACAAA [hsa-mir-10a],-0.175
11,UUUGUUGAAAGAAUAAAUAAACCAACAAG [hsa-mir-1264],0.0773
12,UUUUAAUUUUUUUAAAA [hsa-mir-3606],-0.175
13,UUUUAGAA [hsa-mir-4443],-0.535
14,UUUUAUCAUUACUUUUAAUGGCAAAA [hsa-mir-548f-2],0.834
15,UUUUCAGUUCCUGAGAUC [hsa-mir-4287],-0.202
16,UUUUCAUGACAACCCUAUAUGGGAAAAUGUUGUGAAAA [hsa-mir-3646],-0.448
17,UUUUCCCUUUCUCUUGCCCUGAAA [hsa-mir-4509-1_4509-3_4509-2],-0.096
18,UUUUCCUGAGAAUAAGAGAAGGAAGG [hsa-mir-4455],-0.0611
19,UUUUCGCUUUAUAUGUGACGAAAC [hsa-mir-495],0.125
20,UUUUCUGGGA [hsa-mir-4456],-0.103
21,UUUUCUGUCCUGUCCACACAGAAAA [hsa-mir-1537],-0.517
22,UUUUCUUAAAUUGUAUAAAGAGAAAU [hsa-mir-944],-0.156
23,UUUUGAAAGUAACUUGGCGAAA [hsa-mir-548ad],-0.118
24,UUUUGACAUUACUUUCAAAGACAAAA [hsa-mir-548f-1],-0.214
